Source: patent publication US20230235011A1 (BEIJING BEYOND BIOTECHNOLOGY, published 2023)

T1: trop-2 protein (UniProt P09758 27-274, limits assumed)
T1 construct: Bought antigen, used as the SPR analyte; The printed catalogue number is doubtful
T1 sequence (looked up): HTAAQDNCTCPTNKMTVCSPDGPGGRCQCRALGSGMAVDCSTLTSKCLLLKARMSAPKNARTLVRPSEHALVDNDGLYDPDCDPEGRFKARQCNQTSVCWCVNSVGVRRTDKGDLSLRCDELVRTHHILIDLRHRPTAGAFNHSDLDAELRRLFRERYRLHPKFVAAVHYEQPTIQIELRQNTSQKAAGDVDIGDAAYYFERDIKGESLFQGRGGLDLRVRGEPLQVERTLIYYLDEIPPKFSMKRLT


Columns and labels:
trop-2 protein = target: T1, trop-2 protein; assay: SPR (Biacore T100, 25 C); binder captured on anti-human IgG CM5 chip, trop-2 protein as analyte
GPC-3 protein = target: T2, GPC-3 protein (UniProt P51654 25-559, limits assumed); assay: SPR (Biacore T100, 25 C); binder captured on anti-human IgG CM5 chip, GPC-3 protein as analyte
T2 construct: Bought antigen, used as the SPR analyte; also called Glypican-3
T2 sequence (P51654 25-559 limits assumed): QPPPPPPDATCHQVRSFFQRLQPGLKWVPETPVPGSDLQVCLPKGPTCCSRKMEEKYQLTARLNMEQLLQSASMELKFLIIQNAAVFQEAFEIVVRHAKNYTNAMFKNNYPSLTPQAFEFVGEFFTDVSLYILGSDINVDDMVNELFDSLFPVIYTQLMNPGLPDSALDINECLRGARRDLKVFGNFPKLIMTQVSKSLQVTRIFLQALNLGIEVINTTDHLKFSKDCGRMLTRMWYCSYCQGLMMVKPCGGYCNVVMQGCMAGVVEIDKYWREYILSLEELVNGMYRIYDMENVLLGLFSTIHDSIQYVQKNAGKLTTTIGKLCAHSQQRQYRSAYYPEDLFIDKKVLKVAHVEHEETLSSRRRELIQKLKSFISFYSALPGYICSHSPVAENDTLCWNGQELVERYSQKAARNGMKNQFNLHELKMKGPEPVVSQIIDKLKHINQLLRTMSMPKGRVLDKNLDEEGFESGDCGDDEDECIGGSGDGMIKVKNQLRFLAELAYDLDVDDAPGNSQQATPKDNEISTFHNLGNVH

Kd (trop-2 protein)	koff (trop-2 protein)	kon (trop-2 protein)	Kd (GPC-3 protein)	koff (GPC-3 protein)	kon (GPC-3 protein)	Binder
0.857 nM	4.82e-05 s⁻¹	56300 M⁻¹ s⁻¹				anti-trop-2 antibody BY43 (sacituzumab) (antibody, human IgG1, kappa, V domains shown, Made in-house from INN 10418; also called control antibody BY43) VH: QVQLQQSGSELKKPGASVKVSCKASGYTFTNYGMNWVKQAPGQGLKWMGWINTYTGEPTYTDDFKGRFAFSLDTSVSTAYLQISSLKADDTAVYFCARGGFGSSYWYFDVWGQGSLVTVSS VL: DIQLTQSPSSLSASVGDRVSITCKASQDVSIAVAWYQQKPGKAPKLLIYSASYRYTGVPDRFSGSGSGTDFTLTISSLQPEDFAVYYCQQHYITPLTFGAGTKVEIKR
			2.08 nM	7.57e-05 s⁻¹	36400 M⁻¹ s⁻¹	anti-GPC-3 antibody BY20.2 (codrituzumab) (antibody, human IgG1, kappa, V domains shown, Made in-house from INN 9759; If the listing has 19, the mature range is 20-238; also called control antibody BY20.2) VH: QVQLVQSGAEVKKPGASVKVSCKASGYTFTDYEMHWVRQAPGQGLEWMGALDPKTGDTAYSQKFKGRVTLTADKSTSTAYMELSSLTSEDTAVYYCTRFYSYTYWGQGTLVTVSS VL: DVVMTQSPLSLPVTPGEPASISCRSSQSLVHSNRNTYLHWYLQKPGQSPQLLIYKVSNRFSGVPDRFSGSGSGTDFTLKISRVEAEDVGVYYCSQNTHVPPTFGQGTKLEIKR
